Here are results for two molecules from US20090208949A1 (WISCONSIN ALUMNI RESEARCH FOUNDATION, published 2009).

One assay concerns the target T1, sorting nexin 5 (Homo sapiens (Human), UniProt Q9Y5X3 1-404, limits assumed).
T1 construct: also called SNX5; Myc-SNX5
T1 sequence: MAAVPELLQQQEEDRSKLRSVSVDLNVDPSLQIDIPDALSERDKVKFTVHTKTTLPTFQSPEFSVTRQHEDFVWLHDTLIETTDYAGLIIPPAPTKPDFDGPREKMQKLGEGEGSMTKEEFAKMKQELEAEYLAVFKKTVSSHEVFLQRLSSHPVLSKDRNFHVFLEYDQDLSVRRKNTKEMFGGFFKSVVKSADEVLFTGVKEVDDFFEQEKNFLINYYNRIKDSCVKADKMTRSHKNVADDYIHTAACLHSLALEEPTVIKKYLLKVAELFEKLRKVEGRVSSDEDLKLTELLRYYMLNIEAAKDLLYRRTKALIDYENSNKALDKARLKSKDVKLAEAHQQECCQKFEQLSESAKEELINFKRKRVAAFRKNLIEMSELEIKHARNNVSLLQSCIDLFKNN
Briefly: yeast two-hybrid screen.

For a further assay, the target named is T2, LMO4 (Homo sapiens (Human), UniProt P61968 1-165).
T2 sequence: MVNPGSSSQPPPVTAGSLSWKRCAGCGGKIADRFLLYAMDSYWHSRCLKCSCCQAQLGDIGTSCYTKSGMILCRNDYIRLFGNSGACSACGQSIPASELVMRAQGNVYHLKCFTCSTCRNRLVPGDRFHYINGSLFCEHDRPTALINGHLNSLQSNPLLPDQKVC
Briefly: yeast two-hybrid screen.

Where no end group is shown, it is not given here.

B1: C-terminus of the PIPKIγ 707 splice variant (other)
chain: FTDGRYWIYSPRHRRLRAVTLSASGTVSDRSRPPWGEGAVPLGQQGAAGPRPEAQCLTSVVFQKGFG
notes: Yeast two-hybrid bait
For the molecule B1, the binding result with sorting nexin 5 is recorded as “binds”.

B2: C-terminus of the PIPKIγ 700 variant (other)
chain: WRLWGPHAPTWPWRREGRAACLCPYPPHVVTPFPGTGLCASWSPDGTGGLGAMSCCVSVS
modifications: not fully specified; cysteine pairing not given here
notes: Yeast two-hybrid bait
For the molecule B2, in the assay with LMO4, the binding result is given as “binds”.
